Source: patent publication US20150203577A1 (Chugai, published 2015)
Changes are numbered by the printed parent chain.

B1: H237-MB581/MRAL-k0 (antibody, mouse IgG1, kappa)
heavy: QVQLQESGPGLVKPSETLSLTCAVSGHSISHDHAWSWVRQPPGEGLEWIGFISYSGITNYNPSLQGRVTISRDNSKNTLYLQMNSLRAEDTAVYYCARSLARTTAMDYWGEGTLVTVSSAKTTPPSVYPLAPGSAAQTNSMVTLGCLVKGYFPEPVTVTWNSGSLSSGVHTFPAVLQSDLYTLSSSVTVPSSTWPSETVTCNVAHPASSTKVDKKIVPRDCGCKPCICTVPEVSWVTIFPPKPKDVLTITLTPKVTCVVVDISKDDPEVQFSWFVDDVEVHTAQTQPREEQFNSTFRSVSELPIMHQDWLNGKEFKCRVNSAAFPAPIEKTISKTKGRPKAPQVYTIPPPKEQMAKDKVSLTCMITDFFPEDITVEWQWNGQPAENYKNTQPIMDTDGSYFVYSKLNVQKSNWEAGNTFTCSVLHEGLHNHHTEKSLSHSPGK
light: not shown
notes: copies: 2 + 2
B2: H237-MB586/MRAL-k0 (antibody, mouse IgG1, kappa)
heavy: B1 heavy with S234D, T237F
light: not shown
notes: copies: 2 + 2
B3: H237-MB605/MRAL-k0 (antibody, mouse IgG1, kappa)
heavy: B1 heavy with T229E, S234D, W235S, T237D
light: not shown
notes: copies: 2 + 2
B4: H237-MB622/MRAL-k0 (antibody, mouse IgG1, kappa)
heavy: B1 heavy with S234D, W235D, T237F
light: not shown
notes: copies: 2 + 2
B5: H237-MB595/MRAL-k0 (antibody, mouse IgG1, kappa)
heavy: B1 heavy with T229E, S234E, W235F, T237F
light: not shown
notes: copies: 2 + 2
B6: H237-MB602/MRAL-k0 (antibody, mouse IgG1, kappa)
heavy: B1 heavy with T229E, V233E, S234D, W235S, T237F
light: not shown
notes: copies: 2 + 2
B7: H237-MB608/MRAL-k0 (antibody, mouse IgG1, kappa)
heavy: B1 heavy with S234E, W235E, T237D
light: not shown
notes: copies: 2 + 2
B8: H237-MB609/MRAL-k0 (antibody, mouse IgG1, kappa)
heavy: B1 heavy with S234E, W235E, T237F, S263M
light: not shown
notes: copies: 2 + 2
B9: H237-MB584/MRAL-k0 (antibody, mouse IgG1, kappa)
heavy: B1 heavy with V233E, S234D, W235S, T237F
light: not shown
notes: copies: 2 + 2
B10: H237-MB611/MRAL-k0 (antibody, mouse IgG1, kappa)
heavy: B1 heavy with V233E, S234D, W235E, T237F
light: not shown
notes: copies: 2 + 2
B11: H237-MB585/MRAL-k0 (antibody, mouse IgG1, kappa)
heavy: B1 heavy with S234D, W235F, T237F
light: not shown
notes: copies: 2 + 2
B12: H237-MB596/MRAL-k0 (antibody, mouse IgG1, kappa)
heavy: B1 heavy with T229E, S234E, T237F
light: not shown
notes: copies: 2 + 2
B13: H237-MB613/MRAL-k0 (antibody, mouse IgG1, kappa)
heavy: B1 heavy with S234D, W235E, T237F, S263M
light: not shown
notes: copies: 2 + 2
B14: H237-MB619/MRAL-k0 (antibody, mouse IgG1, kappa)
heavy: B1 heavy with S234D, W235D, T237D
light: not shown
notes: copies: 2 + 2
B15: H237-MB589/MRAL-k0 (antibody, mouse IgG1, kappa)
heavy: B1 heavy with S234D, W235S
light: not shown
notes: copies: 2 + 2
B16: H237-MB599/MRAL-k0 (antibody, mouse IgG1, kappa)
heavy: B1 heavy with T229E, V233E, W235F, T237F
light: not shown
notes: copies: 2 + 2
B17: H237-MB612/MRAL-k0 (antibody, mouse IgG1, kappa)
heavy: B1 heavy with S234D, W235E, T237D
light: not shown
notes: copies: 2 + 2
B18: H237-MB618/MRAL-k0 (antibody, mouse IgG1, kappa)
heavy: B1 heavy with V233E, S234D, W235D, T237F
light: not shown
notes: copies: 2 + 2
B19: H237-MB617/MRAL-k0 (antibody, mouse IgG1, kappa)
heavy: B1 heavy with V233E, W235D, T237D
light: not shown
notes: copies: 2 + 2
B20: H237-MB676/MRAL-k0 (antibody)
heavy: B1 heavy with T229E, V230P, P231N, S234E, W235K, T237F
light: not shown
notes: copies: 2 + 2
B21: H237-MB601/MRAL-k0 (antibody, mouse IgG1, kappa)
heavy: B1 heavy with T229E, V233E, W235S, T237D
light: not shown
notes: copies: 2 + 2
B22: H237-MB600/MRAL-k0 (antibody, mouse IgG1, kappa)
heavy: B1 heavy with T229E, V233E, T237F
light: not shown
notes: copies: 2 + 2
B23: H237-MB588/MRAL-k0 (antibody, mouse IgG1, kappa)
heavy: B1 heavy with S234D, W235S, T237E
light: not shown
notes: copies: 2 + 2
B24: H237-MB615/MRAL-k0 (antibody, mouse IgG1, kappa)
heavy: B1 heavy with S234E, W235D, T237D
light: not shown
notes: copies: 2 + 2
B25: H237-MB591/MRAL-k0 (antibody, mouse IgG1, kappa)
heavy: B1 heavy with S234D, W235S, T237F, S294H
light: not shown
notes: copies: 2 + 2
B26: H237-MB587/MRAL-k0 (antibody, mouse IgG1, kappa)
heavy: B1 heavy with S234D, W235S, T237D
light: not shown
notes: copies: 2 + 2
B27: H237-MB616/MRAL-k0 (antibody, mouse IgG1, kappa)
heavy: B1 heavy with S234E, W235D, T237F, S263M
light: not shown
notes: copies: 2 + 2
B28: H237-MB621/MRAL-k0 (antibody, mouse IgG1, kappa)
heavy: B1 heavy with S234D, W235E, T237F
light: not shown
notes: copies: 2 + 2
B29: H237-MB607/MRAL-k0 (antibody, mouse IgG1, kappa)
heavy: B1 heavy with V233E, S234E, W235E, T237F
light: not shown
notes: copies: 2 + 2
B30: H237-MB603/MRAL-k0 (antibody, mouse IgG1, kappa)
heavy: B1 heavy with T229E, S234D, W235F, T237F
light: not shown
notes: copies: 2 + 2
B31: H237-MB597/MRAL-k0 (antibody, mouse IgG1, kappa)
heavy: B1 heavy with T229E, S234E, W235S, T237D
light: not shown
notes: copies: 2 + 2
B32: H237-MB598/MRAL-k0 (antibody, mouse IgG1, kappa)
heavy: B1 heavy with T229E, S234E, W235S, T237F, S263M
light: not shown
notes: copies: 2 + 2
B33: H237-MB604/MRAL-k0 (antibody, mouse IgG1, kappa)
heavy: B1 heavy with T229E, S234D, T237F
light: not shown
notes: copies: 2 + 2
B34: H237-MB614/MRAL-k0 (antibody, mouse IgG1, kappa)
heavy: B1 heavy with V233E, S234E, W235D, T237F
light: not shown
notes: copies: 2 + 2
B35: H237-MB620/MRAL-k0 (antibody, mouse IgG1, kappa)
heavy: B1 heavy with S234D, W235D, T237F, S263M
light: not shown
notes: copies: 2 + 2

Biological target: T1, mouse FcγRIII extracellular domain, C-terminal His tag (mouse, UniProt P08508 31-215)
T1 construct: Whole entry named; also called mFcγRIII; mFcgRIII
T1 chain: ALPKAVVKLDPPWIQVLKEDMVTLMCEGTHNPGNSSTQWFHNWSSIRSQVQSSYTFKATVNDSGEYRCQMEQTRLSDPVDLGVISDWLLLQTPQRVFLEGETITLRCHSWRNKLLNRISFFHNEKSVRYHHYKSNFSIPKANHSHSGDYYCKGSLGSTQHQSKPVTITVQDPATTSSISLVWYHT
Experiment: SPR (Biacore T200); KD of H237-mIgG1/MRAL-k0 / KD of variant

Binder	relative mFcγRIII-binding activity (mIgG1 = 1)
B1	0.42 fold
B2	0.08 fold
B3	4.4 fold
B4	0.4 fold
B5	0.05 fold
B6	0.05 fold
B7	0.13 fold
B8	0.32 fold
B9	0.02 fold
B10	0.09 fold
B11	0.03 fold
B12	0.17 fold
B13	0.06 fold
B14	0.16 fold
B15	0.19 fold
B16	0.11 fold
B17	0.3 fold
B18	0.13 fold

Binder	relative mFcγRIII-binding activity (mIgG1 = 1)
B19	0.15 fold
B20	0.12 fold
B21	0.1 fold
B22	0.25 fold
B23	1.01 fold
B24	0.14 fold
B25	0.02 fold
B26	0.6 fold
B27	0.57 fold
B28	0.23 fold
B29	0.18 fold
B30	0.06 fold
B31	0.54 fold
B32	0.08 fold
B33	0.16 fold
B34	0.84 fold
B35	0.07 fold

biological target: T2, mouse FcγRII extracellular domain, C-terminal His tag (mouse, UniProt P08101 30-210); experiment: as above
T2 construct: Whole entry named; also called mFcγRII; mFcgRII
T2 sequence: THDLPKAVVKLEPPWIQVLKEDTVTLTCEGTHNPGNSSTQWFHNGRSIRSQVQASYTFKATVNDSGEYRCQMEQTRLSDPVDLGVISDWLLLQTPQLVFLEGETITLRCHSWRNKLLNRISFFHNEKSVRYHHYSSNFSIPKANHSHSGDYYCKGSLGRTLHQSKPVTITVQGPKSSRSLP

Binder	relative mFcγRII-binding activity (mIgG1 = 1)
B1	0.69 fold
B2	0.13 fold
B3	9.85 fold
B4	3.83 fold
B5	0.09 fold
B6	0.26 fold
B7	0.42 fold
B8	2.66 fold
B9	0.08 fold
B10	1.11 fold
B11	0.06 fold
B12	0.55 fold
B13	0.24 fold
B14	0.62 fold
B15	0.23 fold
B16	0.7 fold
B17	0.81 fold
B18	1.63 fold

Binder	relative mFcγRII-binding activity (mIgG1 = 1)
B19	0.84 fold
B20	0.22 fold
B21	0.55 fold
B22	1.24 fold
B23	2.01 fold
B24	0.59 fold
B25	0.08 fold
B26	1.33 fold
B27	4.06 fold
B28	3.15 fold
B29	3.14 fold
B30	0.12 fold
B31	1.28 fold
B32	0.41 fold
B33	0.34 fold
B34	10.9 fold
B35	0.23 fold
